The nanobody polyreactivity screen of Harvey et al. (2022)

Test: yeast display, Sf9 membrane polyspecificity reagent, FACS + sequencing; frameworks hold sequencing errors
Method in brief: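 Galactose-induced (36–48 hours) yeast carrying a synthetic nanobody display library were exposed to 10% biotinylated, detergent-solubilized Sf9 membrane reagent at 4 °C for 1 hour. FACS followed streptavidin microbead enrichment, using low and high (top ~1%) gates for expression (anti-HA) and reagent binding (streptavidin). Colony PCR, MiSeq 2 × 250 sequencing and CDR-length filtering followed. Labels for polyreactivity reflect the gate of origin.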

Sequence | polyreactivity (PSR sort gate)
QVQLVESGGGLVQAGGSLRLSCAASGFTIRSYVMGWYRQAPGKEREFVAAISYRGGGTNYADSVKGRFTISRDNAKNTVYLQMNSLKPEDTAVYYCNARSGSSKSGYYNWGQGTQVTVSS | high polyreactivity
QVQLVESGGGLVQAGGSLRLSCAASGLTFVKNAMGLYRQAPRKERELVATISSGGSTNYADSVKGRFTISRDNAKNTVYLQMNSLKPEETAVYYCNKDYTGVLLWIWWDRYDYWGQGTQVTVSS | high polyreactivity
QVQLVESGGGLVQARGSLRLSCAASGSTFRYYAMGLYRQAPGKERELVAAITSSGTSTYYADSVKGRFTISRDNAKNTVYLQMISLKPEDTAVYYCAAPPVYKWVSSRYDYWGQVTQVTVSS | low polyreactivity
QVQLVESGGGLVQAGGSLRLSCAASGFIFLYNAMGWYRQAPGKERELVAAITSSGGTTYYADSVKGRFTISRDNAKNTVYLQMNSLKPEDTAVYYCAARYTGRNGGSTTPEYDYWGQGTQVTVSS | low polyreactivity
QVQLVESGGGLVQAGGSLRLSCAASGRTFYGYAMGWYRQAPGKERELVAGISGRGTRTYYADSVKGRFTISRDNAKNTVYLQMNSLKPEDTAVYYCNAVSIGYYSQSLGLDYWGQGTQVTVSS | high polyreactivity
QVQLVESGGGLVQAGGSLRLSCAASGYIFSSYAMGWYRQAPGKERELVAAISWTGGTYYADSVKGRFTISRDNAKNTVYLQMNSLKPEDTAVYYCAVRYKRKGSGYRTNAYDYWGQGTQVTVSS | high polyreactivity
QVQLVESGGGLVQAGGSLRLSCAASGSTLVANAMGWYRQAPGKERELVAAISSGGITYYADSVKGRFTISRDNAKNTVYLQMHSLKPEDTAVYYCAARIRGTWKYGYWGQGTQVTVSS | low polyreactivity
QDQLVESGGGLVQAGGSLRLSCDASGSIFKSYAMGWFRQAPGKERELVASITYGGGRTYYADSVKGRFTISRDNAKNTVYLQMNSLKPEDTAVYYCATRLFGRSGMYYLRYDYWGQGTQVTVSS | high polyreactivity
QVQLVESGGGLVQAGGSLRLSCAASGSTISGYAKGWYRQAPGKERELVATISRGGSTNYADSVKGRFTISRDNAKNTVYLQMNSLKPEDTEVYYCAAVVSDYVWRYEYWGQGTQVTVSS | low polyreactivity
QVQLVESGGGLVQAGGSLRLSCAASGSIFVFYAMGWYRQAPGKEREFVAAMSISGGRTYYADSVKGRFTISRDIAKNTVYLQMNSLKPEDTAVYYCAASRVYTSITLYYWGQGTQVTVSS | high polyreactivity
QVQLVESGGGLVQAGGSLRLSCAASGRTFYAYAMGWYRQAPGKERELVAAINTSGGRTYYADSVKGRFTISRDNAKNTVYLLMNSLKPEDTAVYYCAADVFTFYPRRYDYWGQGTQVTVSS | low polyreactivity
QVQLVESGGGLVQAGGSLRLSCAASGSIFKPYAMAWYRQAPGKERELVAAINRGGTSTYYADSVKGRFTISRDNAKNTVYLQMNSLKPEDTAVYYCAKTYTEYSVTRSGARMDYWGQGAQVTVSS | low polyreactivity
QVQLVESGGGLVQAGGSLRLSCAASGRIFSGYAMGWYRQAPGKERELVAAITSVGSTNYADSVKGRFTISRDNAKNTVYLQMNSLKPEDTAVYYCARYSYRGTNVRYDYWGQGTQVTVSS | high polyreactivity
QVQLQESGGVQAGGSLRLSCAASGYISRSDVMGWYRQAPGKERELVATINNGTITYYADSVKGRFTISRDNAKNTVYLQMNSLIPEDTAVHYCAVVQSDTDSLYYWGQGTQVTVSS | low polyreactivity
QVQLVESGGGLVQAGGSLRLICAASGSIFVGYAMGWYRQAPGKERELVAAISSNGGSTYYAYSVKGRFTISRDNAKNTVYLQMNSLKPEDTAVYYCAAGVRRVYASGHGAYGYWGQGTQVTVSS | low polyreactivity
QVQLVESGGGLVQAGGSLRLSCPASGSSSVYNAMGWYRQAPGKERELVAAISWSGGRTSYADSVKGRFTISRDIAKNTVYLQMNSLKPEDTAVYFCAAHTVYSPPRVAGPGYDYWGQGTQVTVSS | low polyreactivity

Sequence | polyreactivity (PSR sort gate)
HVQLVESGGGIVQAGGSLRLSCAASGLIVINYAMGRYRQARGKERELVATIRYCGGSTNYADSVKGRFTISRDNAKNTVYLQMNSLKPEDNAVYYCNAGYYPTGYDYWGQGTQVTVSS | low polyreactivity
QVQLVESGGGLVQAGGSLRLSCAASGSTFAFYAMGWYRQAPGKERELVAAINLGGGSTYYADSVKGRFTISRDNAKNTVYLQMNSLKPEDTAVYYCAADFWTFSWPVFDTYVYWGQGTQVTVSS | low polyreactivity
QVQLVESGGGLDQAGGSLLLSCAASGSIFNDYAMGWYRQAPGKERELVAAISTSDGSTYYADSVKGRFTISRDNAKNTVYLQMKSLKPEDTAVYYCAVVSDYYYYPPYGYWGQGTQVTVSS | low polyreactivity
QVQLVESGGGLVHAGGPLRLSCAPSGFIFRGYAMGWYRQAPGKEREFVAAISGSGGSTYYADSVKGRFTISRDNAKNTVFLQMNSLKTDDTAVYYCNARFWGVWGGYDYWGQGTQVTVSS | high polyreactivity
QVQLVESGGGLVQAGGSLRLSCAASGSIFYGYAMGWYRQAPGKERELVAAIRSRGGSTYYADSVKGRFTNSRDNEKNTVYLQMKCLKPEDTAVYYCNAVCRARTLCSNTYGYWGQGTQVSVSS | high polyreactivity
QVQLVESGGGLVQAGGSLRLSCAASGRIFTYYAMGWYRQAPGKERELVATICSSGSTNYADSVKGRFTISRDNAKNTVYLQMNSLKPEDTAVYYCAKKTRRRYDVKYDYWGQGTQVTVSS | low polyreactivity
QVQLVESGGGLVQAGGSLRLSCAASGRIFSYYAMGWYRPAPGTERELVAAITRAGGTNYADSVKGRFTISRDNAKNTVYLQMNSVKPEDTAVYYCAADRSRYRYNAPRYAYDYWGQGTQVTVSS | high polyreactivity
QVQLVESGGGLVQAGGSLRLSWAASGFTFDSNAMGWSRPAPGKEREVVAAISWSGASTYADSVKGRFTISRDNAKNTVYLQMNSLKPEDTAVYYCAADDEDVLFDYWGQGTQVTVSS | low polyreactivity
QVQLVESGGGLVQAGGSLRLSCAASGSIFPHYAMGWYRQAPGKEREFVATISGSTGRTYYADSVKGRFTISRDNAKNTVYLQMNSLKPEDTAVYYCATSVGYYLPPIKYDYWGQGTQVTVSS | low polyreactivity
QVQLVESGGGLVQAGGSLSLSCAASGSNFYYNVMGWYRQAPGKERELVAAISQSGVRTYYADSVKGRFTISRDNAKNTVYLQMNSLKPEDTAVYYCAAKARRLYASSYDYWGQGTQVTVSS | high polyreactivity
QVQLVESGGGLVQAGGSLRLSCAASGITFDSYAMGWNRQAPGKERELVAAISYSGGSTYYADSVKGRFTISRDNAKNTVYLQMNSLNPEDTAVYFCAAGSDDDYDYWGQGTQVTVSS | low polyreactivity
QVQLVESGGGLVQAGGSLRLSCAASGSTFYSYAMGWYRQAPGKDRELVAAISSSSGTTYYADSVKGRFSISRDNAKTTVYLQMNSLKPEDTAVYYCNRGRRYSHKYDYWGQGTQVTVSS | high polyreactivity
QVQLVESGGGLVQAGGSLRLSCAASGITFYRNAMGWYRKAPGKERELLAAISWSGGRTYYADSVKGRFTISRDNAKNTVYLQMNSLKPEDTAVYYCAASSWSSYYRPKYYWGQGTQVTVSS | high polyreactivity
HVQLVESGGGLVQAGGSLRLSCAASGSIFADNAMGWYRQAPGNERELVAAISRTGGSTYYADSVKGRFTISRDNAKNTVYLQMNSLKPEDTAVYYCAADNGYGRYRRYYYWGQGTQVTVSS | high polyreactivity
QVQLVESGGGLVQAGGSLRLSCAASGITFRNYAMGWYRQAPGKERELVAAITTSGSRTYYADSVKGRFTISRDNAKNTVYLQMNSLKPEDTAVYYCAAEKAPWQYYDFEYWGQGTQVTVSS | high polyreactivity
